In US20170165339A1 (IMMATICS BIOTECHNOLOGIES, published 2017):

How the values were obtained:
HLA-A*02 = HLA-A*02 (human); experiment: UV peptide-exchange ELISA, yield grade
HLA-A*02:01 = HLA-A*02:01 (human); experiment: pMHC used for negative control stimulation

| Binder | peptide exchange yield (HLA-A*02) [%] | binding result (HLA-A*02:01) |
| --- | --- | --- |
| YAIGLVMRL [YAIGLVMRL (SEQ ID NO: 266)] | 50 to 75 |  |
| YLLPAIVHI [DDX5-001] |  | binds |

Other lines, results leading:

| peptide exchange yield (HLA-A*02) [%] | binding result (HLA-A*02:01) | Binder |
| --- | --- | --- |
| 50 to 75 |  | KLFPQETLFL [KLFPQETLFL (SEQ ID NO: 264)] |
| 50 to 75 |  | NTCPYVHNI [NTCPYVHNI (SEQ ID NO: 265)] |
